{"source": "paper PMC10745693", "key": {"[1]": {"target": "light-harvesting complex II (LHCII) trimer (spinach)"}, "[2]": {"target": "light-harvesting complex II (LHCII) trimer (spinach)", "remark": "listed apart in the source"}}, "note": "Like-named read-outs stand apart in the source and are kept apart here."}
{"substance": "light-harvesting complex II (LHCII) trimer", "values": [{"measurement": "pairwise LHCII-LHCII interaction energy J", "setting": "[1]", "value": -5.4, "unit": "kBT"}, {"measurement": "pairwise LHCII-LHCII interaction energy J", "setting": "[2]", "value": -7.2, "unit": "kBT"}]}
